# Tested on: Escherichia coli TOP10
# Assay: shrunken log2 fold change of peptide-encoding DNA abundance (4.5 h post-induction vs induction); higher = less antimicrobial activity (less host growth inhibition)
# Conditions: time post-induction: 4.5 h; library: site-saturation at positions 5, 18, 19, 20
# 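Also: peptides expressed intracellularly from a pBAD plasmid library in pooled LB shake-flask culture, induced with 0.3% L-arabinose, DNA abundance read by NGS, three biological replicates, DESeq2 with apeglm shrinkage.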
row,Sequence,shrunken log2 fold change
1,RRIRCRPPRLPRPRPRPVCSPRP,-0.0747
2,RRIRRRPPRLPRPRPRPVEWPRP,-0.182
3,RRIRARPPRLPRPRPRPQKYPRP,-0.363
4,RRIRDRPPRLPRPRPRPMYIPRP,-0.148
5,RRIRQRPPRLPRPRPRPIIRPRP,0.00525
6,RRIRERPPRLPRPRPRPCPGPRP,-0.451
7,RRIRDRPPRLPRPRPRPGSMPRP,-0.403
8,RRIRQRPPRLPRPRPRPLWYPRP,-0.367
9,RRIRPRPPRLPRPRPRPGFLPRP,0.167
10,RRIRMRPPRLPRPRPRPRYCPRP,-0.164
11,RRIRCRPPRLPRPRPRPLVGPRP,3.69
12,RRIRIRPPRLPRPRPRPFTMPRP,-0.79
13,RRIRLRPPRLPRPRPRPCITPRP,-0.275
14,RRIRYRPPRLPRPRPRPFACPRP,0.0731
15,RRIRERPPRLPRPRPRPESDPRP,-0.0699
16,RRIRSRPPRLPRPRPRPIGQPRP,0.0342
17,RRIRDRPPRLPRPRPRPDNRPRP,0.147
18,RRIRMRPPRLPRPRPRPFYQPRP,-0.297
19,RRIRIRPPRLPRPRPRPGLPPRP,0.209
20,RRIRGRPPRLPRPRPRPKNNPRP,0.198
21,RRIRIRPPRLPRPRPRPHRFPRP,-0.62
22,RRIRHRPPRLPRPRPRPHKDPRP,-0.384
23,RRIRQRPPRLPRPRPRPQYFPRP,-0.00133
24,RRIRERPPRLPRPRPRPHLNPRP,-0.434
25,RRIRQRPPRLPRPRPRPVTEPRP,-0.35

row,Sequence,shrunken log2 fold change
1,RRIRSRPPRLPRPRPRPTDCPRP,-0.0926
2,RRIRWRPPRLPRPRPRPTPVPRP,0.49
3,RRIRDRPPRLPRPRPRPGLTPRP,0.262
4,RRIRHRPPRLPRPRPRPVHFPRP,-0.011
5,RRIRIRPPRLPRPRPRPVLMPRP,-0.229
6,RRIRCRPPRLPRPRPRPWFDPRP,-0.496
7,RRIRIRPPRLPRPRPRPWLCPRP,-0.121
8,RRIRRRPPRLPRPRPRPTRWPRP,0.799
9,RRIRDRPPRLPRPRPRPDRKPRP,-0.055
10,RRIRFRPPRLPRPRPRPNPLPRP,0.0861
11,RRIRVRPPRLPRPRPRPDGAPRP,0.413
12,RRIRERPPRLPRPRPRPKCEPRP,0.0279
13,RRIRFRPPRLPRPRPRPCFLPRP,-0.623
14,RRIRNRPPRLPRPRPRPYEAPRP,-0.143
15,RRIRWRPPRLPRPRPRPCRHPRP,0.0955
16,RRIRKRPPRLPRPRPRPLIEPRP,0.105
17,RRIRTRPPRLPRPRPRPYCAPRP,-0.732
18,RRIRYRPPRLPRPRPRPMHAPRP,0.495
19,RRIRTRPPRLPRPRPRPDGWPRP,0.468
20,RRIRIRPPRLPRPRPRPTTEPRP,0.086
21,RRIRSRPPRLPRPRPRPWETPRP,-0.0029
22,RRIRLRPPRLPRPRPRPVLTPRP,-0.198
23,RRIRVRPPRLPRPRPRPQDKPRP,-0.603
24,RRIRRRPPRLPRPRPRPDVAPRP,0.592
25,RRIRSRPPRLPRPRPRPRFFPRP,0.108

row,Sequence,shrunken log2 fold change
1,RRIRCRPPRLPRPRPRPLAKPRP,1.69
2,RRIRSRPPRLPRPRPRPDETPRP,-0.0257
3,RRIRMRPPRLPRPRPRPDLTPRP,0.869
4,RRIRWRPPRLPRPRPRPKATPRP,0.264
5,RRIRKRPPRLPRPRPRPEVFPRP,0.403
6,RRIRWRPPRLPRPRPRPLKCPRP,0.0309
7,RRIRGRPPRLPRPRPRPESMPRP,1.19
8,RRIRCRPPRLPRPRPRPMGQPRP,0.00321
9,RRIRMRPPRLPRPRPRPCFTPRP,-0.123
10,RRIRFRPPRLPRPRPRPYPGPRP,0.00399
11,RRIRMRPPRLPRPRPRPIRGPRP,-0.00871
12,RRIRCRPPRLPRPRPRPENGPRP,-0.0135
13,RRIRNRPPRLPRPRPRPDYNPRP,-0.782
14,RRIRLRPPRLPRPRPRPTKEPRP,-0.0767
15,RRIRSRPPRLPRPRPRPNEEPRP,0.0709
16,RRIRFRPPRLPRPRPRPIYPPRP,-0.574
17,RRIRNRPPRLPRPRPRPRWRPRP,0.623
18,RRIRHRPPRLPRPRPRPCWMPRP,-0.032
19,RRIRLRPPRLPRPRPRPLQPPRP,0.206
20,RRIRVRPPRLPRPRPRPQIEPRP,-0.0116
21,RRIRFRPPRLPRPRPRPQCQPRP,-0.0517
22,RRIRFRPPRLPRPRPRPWFAPRP,-0.582
23,RRIRNRPPRLPRPRPRPLRWPRP,1.25
24,RRIRVRPPRLPRPRPRPKLAPRP,0.274
25,RRIRLRPPRLPRPRPRPRECPRP,-0.104

row,Sequence,shrunken log2 fold change
1,RRIRARPPRLPRPRPRPQMYPRP,-0.3
2,RRIRDRPPRLPRPRPRPQCKPRP,0.0759
3,RRIRQRPPRLPRPRPRPTGAPRP,0.412
4,RRIRMRPPRLPRPRPRPVEQPRP,0.0366
5,RRIRHRPPRLPRPRPRPLPAPRP,0.192
6,RRIRTRPPRLPRPRPRPKTIPRP,-0.292
7,RRIRWRPPRLPRPRPRPRVYPRP,-0.401
8,RRIRVRPPRLPRPRPRPNQIPRP,-0.1
9,RRIRIRPPRLPRPRPRPEHRPRP,-0.051
10,RRIRVRPPRLPRPRPRPSTTPRP,-0.0817
11,RRIRWRPPRLPRPRPRPDQCPRP,0.25
12,RRIRPRPPRLPRPRPRPENCPRP,0.151
13,RRIRFRPPRLPRPRPRPYNDPRP,-0.641
14,RRIRHRPPRLPRPRPRPVTVPRP,-0.179
15,RRIRSRPPRLPRPRPRPKIKPRP,-0.346
16,RRIRARPPRLPRPRPRPPNWPRP,0.59
17,RRIRDRPPRLPRPRPRPCTCPRP,-0.198
18,RRIRMRPPRLPRPRPRPFIDPRP,-0.438
19,RRIRDRPPRLPRPRPRPWPDPRP,0.129
20,RRIRQRPPRLPRPRPRPKSAPRP,-0.0082
21,RRIRHRPPRLPRPRPRPFDFPRP,-1.21
22,RRIRERPPRLPRPRPRPHVPPRP,-0.0791
23,RRIRRRPPRLPRPRPRPCIKPRP,-0.0974
24,RRIRCRPPRLPRPRPRPKSTPRP,-0.137
25,RRIRWRPPRLPRPRPRPAVKPRP,-0.197

row,Sequence,shrunken log2 fold change
1,RRIRFRPPRLPRPRPRPCSLPRP,-0.122
2,RRIRPRPPRLPRPRPRPYFWPRP,-0.137
3,RRIRIRPPRLPRPRPRPKSSPRP,-0.143
4,RRIRQRPPRLPRPRPRPTNCPRP,-0.33
5,RRIRTRPPRLPRPRPRPEMSPRP,-0.145
6,RRIRPRPPRLPRPRPRPRGNPRP,-0.16
7,RRIRWRPPRLPRPRPRPCFVPRP,-0.144
8,RRIRFRPPRLPRPRPRPMRCPRP,0.0196
9,RRIRSRPPRLPRPRPRPTIVPRP,0.148
10,RRIRYRPPRLPRPRPRPNFGPRP,-0.126
11,RRIRMRPPRLPRPRPRPGPIPRP,0.115
12,RRIRFRPPRLPRPRPRPIFPPRP,-0.222
13,RRIRIRPPRLPRPRPRPQHLPRP,-0.542
14,RRIRCRPPRLPRPRPRPHDEPRP,-0.0201
15,RRIRKRPPRLPRPRPRPVNPPRP,-0.0659
16,RRIRIRPPRLPRPRPRPATRPRP,0.19
17,RRIRDRPPRLPRPRPRPNECPRP,0.0169
18,RRIRWRPPRLPRPRPRPEMSPRP,-0.0114
19,RRIRTRPPRLPRPRPRPVEKPRP,-0.016
20,RRIRWRPPRLPRPRPRPIGQPRP,0.00299
21,RRIRPRPPRLPRPRPRPKRIPRP,-0.155
22,RRIRFRPPRLPRPRPRPGDIPRP,0.0113
23,RRIRVRPPRLPRPRPRPQNNPRP,-0.66
24,RRIRRRPPRLPRPRPRPCIEPRP,0.131
25,RRIRVRPPRLPRPRPRPDNSPRP,-0.202

row,Sequence,shrunken log2 fold change
1,RRIRSRPPRLPRPRPRPFGYPRP,-0.179
2,RRIRWRPPRLPRPRPRPANIPRP,-0.884
3,RRIRWRPPRLPRPRPRPARDPRP,0.377
4,RRIRSRPPRLPRPRPRPDSGPRP,-0.02
5,RRIRRRPPRLPRPRPRPCNFPRP,-0.0159
6,RRIRQRPPRLPRPRPRPAWSPRP,0.183
7,RRIRGRPPRLPRPRPRPMPEPRP,0.226
8,RRIRSRPPRLPRPRPRPGMTPRP,-0.105
9,RRIRIRPPRLPRPRPRPLDVPRP,-0.0639
10,RRIRYRPPRLPRPRPRPPVYPRP,-0.406
11,RRIRERPPRLPRPRPRPEWFPRP,0.0631
12,RRIRIRPPRLPRPRPRPKYKPRP,-0.775
13,RRIRQRPPRLPRPRPRPFFWPRP,0.314
14,RRIRVRPPRLPRPRPRPGWHPRP,0.132
15,RRIRGRPPRLPRPRPRPHAVPRP,0.657
16,RRIRDRPPRLPRPRPRPCLYPRP,0.0504
17,RRIRRRPPRLPRPRPRPGMHPRP,0.217
18,RRIRFRPPRLPRPRPRPRRLPRP,0.462
19,RRIRNRPPRLPRPRPRPFWSPRP,-0.146
20,RRIRNRPPRLPRPRPRPWVAPRP,-0.0268
21,RRIRRRPPRLPRPRPRPCHQPRP,-0.172
22,RRIRGRPPRLPRPRPRPGMQPRP,1.15
23,RRIRGRPPRLPRPRPRPIRSPRP,-0.0333
24,RRIRMRPPRLPRPRPRPHWDPRP,-0.145
25,RRIRHRPPRLPRPRPRPGPKPRP,-0.0906

# — the supplement of paper PMC9112550, “Optimization of the antimicrobial peptide Bac7 by deep mutational scanning” (BMC Biology, 2022)
